Residue numbers refer to the chain shown, from its start.
B1: [xTL1A]-0336 (antibody, human IgG1, kappa, V domains shown)
VH: QVQLVQSGAEVKKPGASVKVSCKASGYTFTSYGISWVRQAPGQGLEWMGWISAYNGNTNYAQKLQGRVTMTTDTSTSTAYMELRSLRSDDTAVYYCARESYYGSEAFRAGMDVWGQGTTVTVSS
VL: DIQMTQSPSSLSASVGDRVTITCRASQSVSSYLAWYQQKPGKAPKLLIYDASNRATGVPSRFSGSGSGTDFTLTISSLQPEDFATYYCQQRSNWPWTFGQGTKVEIKR
notes: bivalent disabled antibody, IgG1 effector-function-minimized/kappa
B2: [xTL1A]-0363 (antibody, human IgG1, kappa, V domains shown)
VH: not shown
VL: B1 VL
notes: as for B1
B3: [xTL1A]-0352 (antibody, human IgG1, kappa, V domains shown)
VH: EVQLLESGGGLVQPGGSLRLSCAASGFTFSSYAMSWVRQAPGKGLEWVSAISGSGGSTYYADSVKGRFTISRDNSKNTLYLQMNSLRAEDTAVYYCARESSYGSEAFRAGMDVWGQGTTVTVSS
VL: B1 VL
notes: as for B1
B4: [xTL1A]-0358 (antibody, human IgG1, kappa, V domains shown)
VH: not shown
VL: B1 VL
notes: as for B1
B5: [xTL1A]-0349 (antibody, human IgG1, kappa, V domains shown)
VH: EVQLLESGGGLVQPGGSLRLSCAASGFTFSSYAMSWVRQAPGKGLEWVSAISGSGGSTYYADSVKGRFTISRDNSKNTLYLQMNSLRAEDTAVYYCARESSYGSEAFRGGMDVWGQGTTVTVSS
VL: B1 VL
notes: as for B1
B6: [xTL1A]-0338 (antibody, human IgG1, kappa, V domains shown)
VH: B1 VH with Y101S, A109G
VL: B1 VL
notes: as for B1
B7: [xTL1A]-0347 (antibody, human IgG1, kappa, V domains shown)
VH: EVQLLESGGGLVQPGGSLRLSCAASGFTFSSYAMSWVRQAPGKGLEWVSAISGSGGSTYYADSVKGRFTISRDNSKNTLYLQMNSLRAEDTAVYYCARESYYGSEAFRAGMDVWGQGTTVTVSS
VL: B1 VL
notes: as for B1
B8: TL1A-0375 (bispecific antibody)
heavy 1: QVQLVQSGAEVKKPGASVKVSCKASGYDYTYYGISWVRQAPGQGLEWMGWISTYNTGTHYAPSLQGRVTMTTDTSTSTAYMELRSLRSDDTAVYYCARESYYGSGAFRGGMDVWGQGTTVTVSSASTKGPSVFPLAPSSKSTSGGTAALGCLVKDYFPEPVTVSWNSGALTSGVHTFPAVLQSSGLYSLSSVVTVPSSSLGTQTYICNVNHKPSNTKVDKKVEPKSCDKTHTCPPCPAPEAAGAPSVFLFPPKPKDTLMISRTPEVTCVVVDVSHEDPEVKFNWYVDGVEVHNAKTKPREEQYNSTYRVVSVLTVLHQDWLNGKEYKCKVSNKALPAPIEKTISKAKGQPREPQVCTLPPSREEMTKNQVSLWCLVKGFYPSDIAVEWESNGQPENNYKTTPPVLDSDGSFFLYSKLTVDKSRWQQGNVFSCSVLHEALHSHYTQKSLSLSPGK
heavy 2: not shown
light: not shown
notes: also called TL1A-0375 MBsAb; not shown: human IgG1 constant region with effector-minimizing, KiH and LS mutations
B9: TL1A-0326 (antibody, human IgG1, kappa)
heavy 1: B8 heavy 1
heavy 2: EPKSSDKTHTCPPCPAPEAAGAPSVFLFPPKPKDTLMISRTPEVTCVVVDVSHEDPEVKFNWYVDGVEVHNAKTKPREEQYNSTYRVVSVLTVLHQDWLNGKEYKCKVSNKALPAPIEKTISKAKGQPREPQVYTLPPCREEMTKNQVSLSCAVKGFYPSDIAVEWESNGQPENNYKTTPPVLDSDGSFFLVSKLTVDKSRWQQGNVFSCSVLHEALHSHYTQKSLSLSPGK
light: not shown
notes: one-armed (monovalent) antibody derived from TL1A-0260
B10: TL1A-0368 MBsAb (bispecific antibody)
heavy 1: B8 heavy 1
heavy 2: B1 VH
light: not shown
notes: not shown: human IgG1 constant region with hole KiH, effector-minimizing and LS mutations
B11: TL1A-0370 MBsAb (bispecific antibody)
heavy 1: B8 heavy 1
heavy 2: B1 VH with Y101S
light: not shown
notes: as for B10
B12: TL1A-0371 MBsAb (bispecific antibody)
heavy 1: B8 heavy 1
heavy 2: not shown
light: not shown
notes: as for B10
B13: TL1A-0374 MBsAb (bispecific antibody)
heavy 1: B8 heavy 1
heavy 2: not shown
light: not shown
notes: as for B10
B14: TL1A-0375 MBsAb (bispecific antibody)
heavy 1: B8 heavy 1
heavy 2: not shown
light: not shown
notes: as for B10
B15: TL1A-0373 MBsAb (bispecific antibody)
heavy 1: B8 heavy 1
heavy 2: not shown
light: not shown
notes: as for B10

Target: T1, recombinant human TL1A (human, UniProt O95150 71-251)
T1 construct: Homotrimeric cytokine; biotinylated with Sulfo-NHS-biotin where captured for SPR, coated unlabelled in ELISA, soluble in bioassays; also called TNFSF15
T1 chain: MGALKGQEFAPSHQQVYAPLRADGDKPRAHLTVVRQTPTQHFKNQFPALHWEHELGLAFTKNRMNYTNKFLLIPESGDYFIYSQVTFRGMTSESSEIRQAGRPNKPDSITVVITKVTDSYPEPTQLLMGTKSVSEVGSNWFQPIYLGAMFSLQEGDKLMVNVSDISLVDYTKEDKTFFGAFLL
Test: direct binding ELISA on plate-coated recombinant human TL1A (1 ug/mL), anti-human IgG-Fc HRP, OD450
Procedure: (§1) For the direct binding ELISA, 96-well high binding plates (Corning, product number 3590) were coated with 1 μg/mL recombinant TL1A in 100 μL/well in PBS overnight at 4° C. Plates were then blocked in PBS+0.02% casein solution and washed with PBS+0.05% Tween-20 following standard ELISA protocol. […] Plates were washed with PBS+0.05% Tween-20 following a standard ELISA protocol, and goat anti-human IgG-Fc HRP conjugated secondary antibody (Pierce, catalog number 31413) diluted to 1:10,000 in assay buffer was added to plates and incubated for 1 hour at room temperature. Next, the plates were washed with PBS+0.05% Tween-20 following a standard ELISA protocol, and then TMB substrate (BioFX Laboratories, catalog number TMBW-0100-01) was added to the plates. Reactions were stopped after approximately 5 minutes by adding 0.18 M ortho-phosphoric acid to each well and absorbance was read at 450 nm.

Binder	binding result
B1	no binding (tested: 33.3 nM)
B2	no binding (tested: 33.3 nM)
B3	no binding (tested: 33.3 nM)
B4	no binding (tested: 33.3 nM)
B5	no binding (tested: 33.3 nM)
B6	no binding (tested: 33.3 nM)
B7	no binding (tested: 33.3 nM)

Target: T1, recombinant human TL1A
Test: cell-based or functional assay

Binder	NFκB Bioassay IC50 [nM]
B8	1.35
B9	1.28

target: T2, human serum albumin (human, UniProt P02768 25-609); test: direct binding ELISA on plate-coated HSA (1 ug/mL), anti-human IgG-Fc HRP, OD450
T2 construct: also called HSA
Procedure: as §1, with “ELISA method to HSA or BSA,” for “ELISA,”, “HSA or BSA” for “TL1A”, “following” for “following a”, “#31413)” for “catalog number 31413)”, “to” for “to the”, “plates.” for “plates. Reactions were stopped after approximately 5 minutes by adding 0.18 M ortho-phosphoric acid to each well and absorbance was read at 450 nm.”
(§2) Reactions were stopped after approximately 5 minutes by adding 0.18 M ortho-phosphoric acid to each well and absorbance was read at 450 nm. […] For this method, samples diluted to 0.3 mg/mL were dispensed into the sample tray of a MicroCal VP-Capillary DSC with Autosampler (Malvern Instruments, Inc.), equilibrated for 5 minutes at 10° C. and then scanned up to 110° C. at a rate of 100° C. per/hour. A filtering period of 16 seconds was selected. Raw data was baseline corrected and the protein concentration was normalized. Origin Software 7.0 (Origin Lab Corporation, Northampton, MA) was used to fit the data to an MN2-State Model with an appropriate number of transitions.

Binder	binding result
B8	no binding (tested: 1e-6 M)
B9	no binding (tested: 1e-6 M)

Target: T1, recombinant human TL1A
Test: SPR, recombinant human TL1A

Binder	Kd [nM]	koff [s⁻¹]	kon [M⁻¹ s⁻¹]
B8	0.232	4.9e-05	211000
B9	0.292	5.84e-05	200000

target: T3, bovine serum albumin (bovine, UniProt P02769 25-607); test: direct binding ELISA on plate-coated BSA (1 ug/mL), anti-human IgG-Fc HRP, OD450
T3 construct: also called BSA
T3 sequence (P02769 25-607 limits assumed): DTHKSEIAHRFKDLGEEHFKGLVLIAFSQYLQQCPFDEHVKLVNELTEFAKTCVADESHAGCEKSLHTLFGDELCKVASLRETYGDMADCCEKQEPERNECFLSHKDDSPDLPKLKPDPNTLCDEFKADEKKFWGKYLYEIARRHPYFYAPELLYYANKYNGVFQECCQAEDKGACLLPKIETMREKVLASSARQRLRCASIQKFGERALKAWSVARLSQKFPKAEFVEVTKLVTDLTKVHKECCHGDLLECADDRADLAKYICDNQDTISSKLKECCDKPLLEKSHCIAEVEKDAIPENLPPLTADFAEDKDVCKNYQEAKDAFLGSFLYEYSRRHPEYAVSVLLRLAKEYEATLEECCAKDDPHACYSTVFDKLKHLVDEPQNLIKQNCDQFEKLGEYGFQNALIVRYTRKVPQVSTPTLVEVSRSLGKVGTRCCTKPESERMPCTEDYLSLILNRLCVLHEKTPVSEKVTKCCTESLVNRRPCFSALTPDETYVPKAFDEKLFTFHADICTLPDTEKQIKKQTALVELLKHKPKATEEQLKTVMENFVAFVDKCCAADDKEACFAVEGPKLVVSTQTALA
Procedure: as §1, with “ELISA method to HSA or BSA,” for “ELISA,”, “HSA or BSA” for “TL1A”, “following” for “following a”, “#31413)” for “catalog number 31413)”, “to” for “to the”, “plates.” for “plates. Reactions were stopped after approximately 5 minutes by adding 0.18 M ortho-phosphoric acid to each well and absorbance was read at 450 nm.”
as §2

Binder	binding result
B8	no binding (tested: 1e-6 M)
B9	no binding (tested: 1e-6 M)

target: T2, human serum albumin; test: direct binding ELISA on coated HSA
Procedure: as §1, with “ELISA method to HSA or BSA,” for “ELISA,”, “HSA or BSA” for “TL1A”, “following” for “following a”, “#31413)” for “catalog number 31413)”, “to” for “to the”, “plates.” for “plates. Reactions were stopped after approximately 5 minutes by adding 0.18 M ortho-phosphoric acid to each well and absorbance was read at 450 nm.”
as §2

Binder	binding result
B10	no binding (tested: 0.5-1000 nM)
B11	no binding (tested: 0.5-1000 nM)
B12	no binding (tested: 0.5-1000 nM)
B13	no binding (tested: 0.5-1000 nM)
B14	no binding (tested: 0.5-1000 nM)
B15	no binding (tested: 0.5-1000 nM)

target: T3, bovine serum albumin; test: direct binding ELISA on coated BSA
Procedure: as §1, with “ELISA method to HSA or BSA,” for “ELISA,”, “HSA or BSA” for “TL1A”, “following” for “following a”, “#31413)” for “catalog number 31413)”, “to” for “to the”, “plates.” for “plates. Reactions were stopped after approximately 5 minutes by adding 0.18 M ortho-phosphoric acid to each well and absorbance was read at 450 nm.”
as §2

Binder	binding result
B10	no binding (tested: 0.5-1000 nM)
B11	no binding (tested: 0.5-1000 nM)
B12	no binding (tested: 0.5-1000 nM)
B13	no binding (tested: 0.5-1000 nM)
B14	no binding (tested: 0.5-1000 nM)
B15	no binding (tested: 0.5-1000 nM)

target: T4, full-length human TL1A on CHO-K1 cells (human, UniProt O95150 1-251); test: flow cytometry on CHO-K1 cells stably expressing full-length human TL1A, PE anti-human IgG, median fluorescent intensity
T4 construct: whole, on cells; also called cells over-expressing human TL1A
T4 sequence (looked up): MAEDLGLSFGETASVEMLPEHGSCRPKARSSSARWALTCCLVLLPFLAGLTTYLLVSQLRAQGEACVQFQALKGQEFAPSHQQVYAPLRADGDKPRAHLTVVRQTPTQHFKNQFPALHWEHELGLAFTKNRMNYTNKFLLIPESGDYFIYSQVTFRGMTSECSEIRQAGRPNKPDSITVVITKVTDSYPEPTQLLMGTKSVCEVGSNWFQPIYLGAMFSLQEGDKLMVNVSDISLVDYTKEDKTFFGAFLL
Procedure: A cell binding assay was performed to examine if the panel of [xTL1A] bivalent antibody variants could bind to human TL1A over-expressed on the cell surface. […] [xTL1A] bivalent antibody variants were incubated with cells on ice for 30-60 minutes at a concentration of either 1 μg/mL or 20 μg/mL. Cells were pelleted by centrifugation at 1500 RPM for 5 minutes at 4° C. and supernatant was discarded by aspiration. The cells were washed three times with DPBS with 4% FBS buffer as described. Cells were resuspended in 100 μL of PE-anti-human IgG (Life technologies Catalog number H10104) diluted 1:500 in DPBS with 4% FBS buffer and incubated on ice for 15 minutes. Cells were washed three times as described and resuspended in 200 μL of DPBS with 4% FBS buffer, then run on a flow cytometry instrument.

Binder	binding result
B1	no binding (tested: 20 ug/mL)
B2	no binding (tested: 20 ug/mL)
B3	no binding (tested: 20 ug/mL)
B4	no binding (tested: 20 ug/mL)
B5	no binding (tested: 20 ug/mL)
B6	no binding (tested: 20 ug/mL)
B7	no binding (tested: 20 ug/mL)
